Data reported in the supplement of paper PMC10567573.

B1: VTI1B (parent)
chain: ANETLAEMEEELRYAPLSFRNPMM
B2: CLCN6 (parent)
chain: FQSISLRKIQFNFPYFRSDRDKRD

Variants of: B1
Test: protein stability index of a GFP-peptide fusion (GPS, HEK-293T) (PSI 1-6); higher = more stable
Conditions: c terminus: a fixed tail appended
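Further: lentivirally expressed fusions sorted by FACS into six bins by GFP to DsRed ratio, PSI derived from sequencing read proportions per bin multiplied by bin number.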

Protein stability index of substitutions, site by site:
E7: Y 2.31; Q 2.31; S 2.84; M 2.21; R 1.17; K 2.52; T 2.53; N 2.61; L 2.5; W 1.57
E9: Y 2.48; P 3.22; C 2.33; N 2.87; K 1.8; W 1.3; A 2.44; S 2.78; I 3.61; F 2.71; L 2.45; D 2.85; G 2.19; M 2.19; R 1.4; T 2.94; V 1.66; H 3.27
M8: V 2.16; S 3.14; D 3.37; I 2.8; T 3.11; P 3.11; K 2.4; H 3.39; W 1.51; G 3.19; F 2.51; E 3.1; Q 2.62; C 2.94; N 2.72; R 2.46; A 3.28; Y 2.73; L 2.3
F19: M 4.23; V 3.28; A 3.94; T 4.44; R 4.18; E 4.67; Y 2.35; I 3.73; N 4.3; Q 3.96; H 4.26; P 4.87; C 4.43; G 4.5; W 3.24; K 4.49; D 4.85
E11: L 2.29; T 3.25; M 2.45; Y 2.51; P 2.17; V 1.65; K 3.41; W 1.55; F 1.66; Q 1.95; N 2.81; H 2.89; D 2.13; I 2.69; C 2.22; A 2; S 3.02; R 2.31
E10: P 2.73; W 1.96; Y 1.69; S 2.56; R 1.17; T 3.02; M 1.87; N 2.55; F 2.75; D 1.62; A 2.04; C 2.16; Q 3.3; L 2.05; I 2.05; G 1.49; H 3.06; V 1.82; K 2.73
S18: C 2.24; W 3.98; I 2.83; E 3.79; V 3.14; F 2.64; A 2.21; Y 3.25; H 2.94; M 2.81; L 3.19; G 3.19; K 3.81; P 4.1; D 2.98; N 2.23; T 1.79; Q 3.35; R 3.8
L17: I 3.02; P 3.78; N 4.16; F 1.52; W 2; R 2.93; G 3.49; Y 3.41; H 3.79; T 4.06; A 3.66; C 3.58; D 4.33; V 2.8; E 4.46; Q 4.14; K 3.69; M 3.13; S 2.8
M23: D 4.13; A 2.71; C 3.62; E 2.79; T 3.35; N 3.67; Q 2.89; H 3.24; V 1.83; I 2.04; S 3.62; Y 2.79; L 3.56; K 3.07; W 2.13; R 2.19; G 3.46; F 2.62
P16: W 1.89; H 2.64; N 3.15; R 2.71; K 2.92; M 1.77; E 2.66; L 1.88; G 2; A 2.26; Q 2.29; D 3.56; T 2.77; Y 2.36; F 2.17; S 2.92; C 1.92; I 2.43; V 1.3
M24: R 3.21; C 2.37; Y 3.46; K 3.91; Q 2.46; W 3.97; N 3.2; F 2.83; A 3.78; P 4.98; V 3.04; T 3.97; H 3.26; S 4.41; E 4.67; G 3.72; D 3.92; L 2.26
R20: M 2.4; L 2.57; E 2.58; N 1.51; G 2.65; Y 2.12; I 1.9; P 3.62; F 2.63; H 1.7; D 2.48; S 2.03; C 2.35; V 1.71; K 3.36; T 2.42; W 2.48; Q 1.72; A 2.25
A15: F 1.39; H 1.9; Y 2.52; R 1.76; G 3.44; W 2.92; E 3.56; Q 1.67; K 3.09; S 1.61; N 2.64; V 3.98; I 2.06; D 3.7; M 1.53; T 2.06; L 2.03; C 1.64
P22: S 3.48; F 2.67; T 3.22; E 3.97; Y 3.38; G 3.58; D 4.75; N 3.58; V 2.81; M 3.63; A 3.56; K 3.43; W 3.03; I 3.03; R 3.32; C 3.25; L 3.34; H 4.1; Q 4.11
L12: G 2.62; C 4.37; W 2.19; I 2.99; K 3.27; R 2.59; D 4.49; S 4.33; F 3.14; A 3.14; V 1.83; M 2.28; Q 3.33; T 3.9; P 2.95; Y 4.21; E 3.65; H 3.79; N 4.82
R13: Q 2.37; F 2.01; A 2.04; D 3.02; G 1.67; H 1.82; W 2.03; T 1.42; Y 1.64; L 1.7; N 1.94; K 1.46; P 2.75; S 2.25; M 2.29; C 2.77; V 2.64; E 2.11
Y14: S 1.94; N 2.62; I 1.66; A 2.48; P 2.43; M 1.65; W 1.32; K 1.93; H 1.7; V 2.09; L 3.08; T 2.53; G 2.11; D 3.36; E 3.66; R 2.47; Q 1.67; C 1.98; F 2.06
N21: D 3.12; L 3.13; H 3.42; G 3.72; I 2.92; K 3.61; A 3.81; Q 3.76; F 3.35; Y 3.39; M 3.37; C 2.71; P 3.58; R 3.25; W 2.21; S 3.41; T 3.17; E 3.95

Variants of: B2
Test: as above
Conditions: c terminus: a fixed tail appended

Protein stability index, by site and new letter:
F1: C 2.4; P 2.29; A 2.6; I 2.16; D 3.34; N 3.76; H 2.83; G 2.16; K 3.31; E 4
